Results reported in patent US20190010249A1 (Ablynx, published 2019).

Columns and labels:
[1] = target: T1, human multimeric vWF (purified vWF HaemateP) (human, UniProt P04275 764-2813); experiment: Gyrolab solution affinity, 5 pM caplacizumab pre-incubated with vWF dilution series; liquid formulation
T1 construct: vWF purified from HaemateP by size-exclusion chromatography; also called multimeric target vWF; purified HaemateP
Source text: (§1) This assay measures the inhibition of ristocetin-induced binding of von Willebrand Factor (vWF) to bound platelet by caplacizumab. [0395] c) The RICO assay is used as pharmacodynamics marker for the pharmacological activity of caplacizumab. The assay measures the rate and degree to which human lyophilized platelets form aggregates after the addition of the antibiotic ristocetin, which mimics shear-induced activation of vWF. [0396] d) Gyrolab-based assay analyses the kinetic interactions of caplacizumab with its multimeric target vWF and determines the affinity constant of caplacizumab to human multimeric vWF. Briefly, affinity determination on the Gyroloab platform was established as follows: Gyrolab Bioaffy 1000 CDs were used. As capture tool, 3000 nM in-house biotinylated purified vWF (purified HaemateP using size-exclusion chromatography) was applied on the columns which were pre-packed with streptavidin-coated beads. Filter-sterilized D-PBS containing 0.01% Tween-20 was used for dilution of the capture tool. […] Free caplacizumab was detected with 50 nM AlexaFluor647-labeled anti-caplacizumab monoclonal antibody diluted in Rexxip F buffer (commercially available detection buffer). […]

[2] = target: T1, human multimeric vWF (purified vWF …); experiment: Gyrolab solution affinity, 5 pM caplacizumab pre-incubated with vWF dilution series; lyophilized formulation
Source text: as §1

B1: 12A02H1-3a-12A02H1 (ALX-0081) (VHH)
chain: EVQLVESGGGLVQPGGSLRLSCAASGRTFSYNPMGWFRQAPGKGRELVAAISRTGGSTYYPDSVEGRFTISRDNAKRMVYLQMNSLRAEDTAVYYCAAAGVRAEDGRVRTLPSEYTFWGQGTQVTVSSAAAEVQLVESGGGLVQPGGSLRLSCAASGRTFSYNPMGWFRQAPGKGRELVAAISRTGGSTYYPDSVEGRFTISRDNAKRMVYLQMNSLRAEDTAVYYCAAAGVRAEDGRVRTLPSEYTFWGQGTQVTVSS
notes: Bivalent Nanobody: a single chain of two 12A02H1 domains joined by an AAA linker; It was tested as samples from different formulations and storage conditions; also called caplacizumab; anti-vWF Nanobody caplacizumab
A Kd [1] of 6.84 pM and a Kd [2] of 4.46 pM were found for B1 in this work.
